According to patent US20250313636A1 (PARAGON THERAPEUTICS, published 2025):

Columns and labels:
[1] = target: T1, α4β7 integrin expressed on cells (UniProt P13612 34-1032; P26010 20-798, limits assumed); test: cell-based or functional assay
[2] = target: T1, α4β7 integrin expressed on cells; test: flow cytometry on RPMI-8866 cells (α4β7 only)
Protocol: (§1) Antibody binding to α4β7 integrin or α4β1 integrin expressed on cells was determined using FACS and two cell lines. […] The second cell line was Ramos and is known to only express α4β1. Briefly, cells were cultured and harvested according to standard vendor instructions. Cells were stained with purified antibodies at concentrations of 0 nM, 0.0064 nM, 0.032 nM, 0.16 nM, 0.8 nM, 4 nM, 20 nM, and 100 nM and incubated at 4° C. for 1 hour. Cells were subsequently stained with an Alexa Fluor 488-conjugated goat anti-human IgG secondary antibody at a 1:1000 dilution. Cells were incubated 4° C. for 1 hour, protected from light. Cells were then washed and the MFI of cells in each well were recorded by FACS using a flow cytometer. Subsequent data were analyzed using GraphPad Prism. […] On the other hand, an anti-α4 antibody tested binds to both cell lines.

[3] = target: T2, recombinant human α4β7 integrin (human, UniProt P13612 34-977; P26010 20-723, limits assumed); test: SPR, antibody captured on anti-human Fc CM5 chip, recombinant human α4β7 integrin as analyte, 25 °C, 1:1 model; apparent KD
Protocol: (§2) Following a stabilization period in running buffer, antibodies previously diluted to 1-1.5 μg/mL were captured on the chip for 30 seconds at a flow rate of 10 μL/min. Subsequently, recombinant human α4β7 integrin was prepared at concentrations of 1.563 nM, 3.125 nM, 6.25 nM, 12.5 nM, 25 nM, 50 nM and 100 nM and injected at a flow rate of 30 μL/min for 180 seconds followed by a dissociation phase with just running buffer at a flow rate of 30 μL/min for 1200 seconds. Samples were injected in a multi-cycle manner over freshly captured mAb, by regenerating the capture surfaces with injection of 10 mM Glycine, pH 1.5. The data was processed and analyzed with SPR analysis software, where sensorgrams were fit to a 1:1 binding model to determine the apparent association (ka) and dissociation rate constants (kd). Their ratio provided the apparent equilibrium dissociation constant or affinity constant (KD=kd/ka).

[4] = target: T3, α4β1 integrin expressed on cells (UniProt P13612 34-1032; P05556 21-798, limits assumed); test: flow cytometry on Ramos cells
T3 construct: whole, on cells; also called α4β1 on Ramos cells; α4β1 on HuT-78 cells
Protocol: as §1

[5] = target: T2, recombinant human α4β7 integrin; test: SPR, antibody captured on anti-human Fc CM5 chip, recombinant human α4β7 integrin as analyte, 25 °C, 1:1 model
Protocol: as §2

T1 sequence (P13612 34-1032 limits assumed, chain 1 of 2): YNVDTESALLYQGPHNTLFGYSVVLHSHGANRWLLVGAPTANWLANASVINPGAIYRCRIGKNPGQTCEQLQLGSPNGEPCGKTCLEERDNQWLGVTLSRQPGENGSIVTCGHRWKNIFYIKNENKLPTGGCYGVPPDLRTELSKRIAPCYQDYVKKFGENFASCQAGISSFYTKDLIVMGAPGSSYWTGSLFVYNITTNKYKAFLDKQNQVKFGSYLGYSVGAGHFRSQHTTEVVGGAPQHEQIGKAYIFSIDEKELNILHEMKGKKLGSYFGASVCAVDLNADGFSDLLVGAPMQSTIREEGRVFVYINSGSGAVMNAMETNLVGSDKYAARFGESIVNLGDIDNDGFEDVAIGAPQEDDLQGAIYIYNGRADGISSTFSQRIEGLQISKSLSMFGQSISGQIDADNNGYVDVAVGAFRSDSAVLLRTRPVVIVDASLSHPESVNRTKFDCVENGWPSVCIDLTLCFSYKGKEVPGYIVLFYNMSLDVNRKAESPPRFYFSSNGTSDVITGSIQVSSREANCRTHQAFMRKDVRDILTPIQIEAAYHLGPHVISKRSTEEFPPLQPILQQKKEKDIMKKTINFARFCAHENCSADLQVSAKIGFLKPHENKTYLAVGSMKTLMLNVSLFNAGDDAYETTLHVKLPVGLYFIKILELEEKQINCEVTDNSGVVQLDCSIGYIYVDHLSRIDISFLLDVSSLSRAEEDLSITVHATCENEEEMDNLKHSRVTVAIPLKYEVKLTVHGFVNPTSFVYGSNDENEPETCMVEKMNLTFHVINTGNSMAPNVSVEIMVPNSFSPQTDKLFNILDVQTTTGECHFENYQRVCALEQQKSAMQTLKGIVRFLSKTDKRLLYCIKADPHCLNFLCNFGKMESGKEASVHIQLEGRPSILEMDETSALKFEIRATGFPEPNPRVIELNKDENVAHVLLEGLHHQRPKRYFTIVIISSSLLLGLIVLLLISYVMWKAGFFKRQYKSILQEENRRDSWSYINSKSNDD
T1 sequence (P26010 20-798 limits assumed, chain 2 of 2): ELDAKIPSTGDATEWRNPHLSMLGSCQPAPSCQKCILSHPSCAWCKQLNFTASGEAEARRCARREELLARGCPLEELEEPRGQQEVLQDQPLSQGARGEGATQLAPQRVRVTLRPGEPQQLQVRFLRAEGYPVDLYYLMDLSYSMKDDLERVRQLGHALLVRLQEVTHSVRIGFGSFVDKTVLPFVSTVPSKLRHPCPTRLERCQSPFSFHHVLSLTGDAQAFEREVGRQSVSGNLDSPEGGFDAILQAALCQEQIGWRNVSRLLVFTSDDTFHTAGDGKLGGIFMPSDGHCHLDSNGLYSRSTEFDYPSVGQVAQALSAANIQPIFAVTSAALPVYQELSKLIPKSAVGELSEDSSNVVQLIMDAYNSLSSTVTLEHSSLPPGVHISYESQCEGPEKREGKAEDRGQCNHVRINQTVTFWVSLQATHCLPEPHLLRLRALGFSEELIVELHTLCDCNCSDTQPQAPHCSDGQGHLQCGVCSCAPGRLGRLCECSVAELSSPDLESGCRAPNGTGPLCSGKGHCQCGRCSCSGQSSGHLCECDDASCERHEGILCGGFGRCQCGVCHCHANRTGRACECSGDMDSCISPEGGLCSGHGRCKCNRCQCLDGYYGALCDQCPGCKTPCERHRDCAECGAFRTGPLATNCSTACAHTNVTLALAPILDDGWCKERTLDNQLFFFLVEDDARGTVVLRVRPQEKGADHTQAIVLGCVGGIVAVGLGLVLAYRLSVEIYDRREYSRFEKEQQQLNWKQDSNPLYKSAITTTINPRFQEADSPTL
T2 sequence (P13612 34-977 limits assumed, chain 1 of 2): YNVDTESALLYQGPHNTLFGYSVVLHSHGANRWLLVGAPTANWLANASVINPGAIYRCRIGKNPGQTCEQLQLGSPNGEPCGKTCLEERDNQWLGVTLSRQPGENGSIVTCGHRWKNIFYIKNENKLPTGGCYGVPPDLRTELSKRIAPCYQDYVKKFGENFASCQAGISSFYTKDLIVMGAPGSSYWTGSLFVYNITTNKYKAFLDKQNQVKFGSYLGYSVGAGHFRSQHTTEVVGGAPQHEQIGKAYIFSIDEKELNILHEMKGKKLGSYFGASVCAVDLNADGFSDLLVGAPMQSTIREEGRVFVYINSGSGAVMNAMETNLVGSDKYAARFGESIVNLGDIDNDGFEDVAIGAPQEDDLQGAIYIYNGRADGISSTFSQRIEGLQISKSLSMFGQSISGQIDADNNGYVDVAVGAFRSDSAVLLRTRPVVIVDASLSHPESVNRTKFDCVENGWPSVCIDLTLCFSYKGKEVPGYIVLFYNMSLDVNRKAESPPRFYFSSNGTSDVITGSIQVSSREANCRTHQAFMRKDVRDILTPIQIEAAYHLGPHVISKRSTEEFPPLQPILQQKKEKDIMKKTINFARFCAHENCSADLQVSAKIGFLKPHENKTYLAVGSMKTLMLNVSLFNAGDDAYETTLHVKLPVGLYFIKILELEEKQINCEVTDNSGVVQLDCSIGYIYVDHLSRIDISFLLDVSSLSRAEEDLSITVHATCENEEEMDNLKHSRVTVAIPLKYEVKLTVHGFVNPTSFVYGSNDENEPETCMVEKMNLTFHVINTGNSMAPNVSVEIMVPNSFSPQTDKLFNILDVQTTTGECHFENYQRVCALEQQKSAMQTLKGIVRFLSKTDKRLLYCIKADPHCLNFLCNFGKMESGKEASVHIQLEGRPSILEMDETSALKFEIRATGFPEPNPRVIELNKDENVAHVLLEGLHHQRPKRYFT
T2 sequence (P26010 20-723 limits assumed, chain 2 of 2): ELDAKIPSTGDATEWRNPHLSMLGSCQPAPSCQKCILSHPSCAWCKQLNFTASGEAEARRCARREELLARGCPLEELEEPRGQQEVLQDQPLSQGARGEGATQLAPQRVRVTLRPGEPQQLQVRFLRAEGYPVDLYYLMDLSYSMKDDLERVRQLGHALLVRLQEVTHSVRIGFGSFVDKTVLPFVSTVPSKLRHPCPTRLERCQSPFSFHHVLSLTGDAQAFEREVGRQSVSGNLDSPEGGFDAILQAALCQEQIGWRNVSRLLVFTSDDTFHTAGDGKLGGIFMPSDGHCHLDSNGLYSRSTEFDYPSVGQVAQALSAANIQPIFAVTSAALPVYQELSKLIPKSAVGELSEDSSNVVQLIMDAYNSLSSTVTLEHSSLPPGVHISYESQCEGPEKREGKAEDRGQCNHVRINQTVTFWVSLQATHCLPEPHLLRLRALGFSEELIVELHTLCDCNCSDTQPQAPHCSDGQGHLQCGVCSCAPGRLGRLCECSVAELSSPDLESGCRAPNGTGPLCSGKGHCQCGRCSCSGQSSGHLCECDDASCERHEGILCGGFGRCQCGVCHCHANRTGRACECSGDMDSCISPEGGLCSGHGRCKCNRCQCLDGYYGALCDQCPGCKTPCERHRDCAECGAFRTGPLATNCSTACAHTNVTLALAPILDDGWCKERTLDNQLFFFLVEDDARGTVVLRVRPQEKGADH
T3 sequence (P13612 34-1032 limits assumed, chain 1 of 2): as the sequence (P13612 34-1032 limits assumed, chain 1 of 2) above
T3 sequence (P05556 21-798 limits assumed, chain 2 of 2): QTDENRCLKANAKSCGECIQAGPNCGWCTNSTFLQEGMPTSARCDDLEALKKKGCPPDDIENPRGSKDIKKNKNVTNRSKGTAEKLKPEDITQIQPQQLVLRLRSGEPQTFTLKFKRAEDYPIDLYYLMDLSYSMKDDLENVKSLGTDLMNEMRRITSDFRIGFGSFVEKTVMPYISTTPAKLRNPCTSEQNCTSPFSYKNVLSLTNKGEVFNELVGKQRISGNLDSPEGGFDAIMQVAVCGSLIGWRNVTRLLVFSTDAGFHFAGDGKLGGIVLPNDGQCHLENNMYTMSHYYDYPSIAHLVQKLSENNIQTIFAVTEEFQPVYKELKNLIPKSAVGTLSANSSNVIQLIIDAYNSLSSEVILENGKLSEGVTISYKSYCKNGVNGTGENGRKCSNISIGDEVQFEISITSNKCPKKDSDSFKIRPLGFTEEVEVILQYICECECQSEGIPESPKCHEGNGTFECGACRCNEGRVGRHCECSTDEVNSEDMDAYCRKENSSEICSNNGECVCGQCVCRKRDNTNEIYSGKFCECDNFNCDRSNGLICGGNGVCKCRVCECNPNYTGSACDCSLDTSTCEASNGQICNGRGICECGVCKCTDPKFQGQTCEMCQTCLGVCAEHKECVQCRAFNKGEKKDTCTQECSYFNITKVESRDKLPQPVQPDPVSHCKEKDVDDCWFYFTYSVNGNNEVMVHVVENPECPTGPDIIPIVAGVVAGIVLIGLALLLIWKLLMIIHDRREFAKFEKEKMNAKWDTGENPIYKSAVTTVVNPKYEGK

MAdCAM-1 Adhesion Inhibition IC50 [1] [nM]	EC50 [2] [nM]	Kd [3] [nM]	koff [5] [s⁻¹]	kon [5] [M⁻¹ s⁻¹]	Binder	binding result [4]
0.087	0.2	6.79	0.000466	68500	Antibody 1 (antibody, V domains shown, It has a human Fc: captured by anti-human Fc in SPR, detected by anti-human IgG in FACS) VH: EVQLVQSGAEVKKPGSSVKVSCKASGGTFTSYWMHWVRQAPGQGLEWMGEIDPSESNTNYNQKFKGRATITADISTSTAYMELSSLRSEDTAVYYCARGGYDGWDYAIDYWGQGTLVTVSS VL: DVVMTQTPLSLPVTPGQPASISCRSSQSLAKSYGNTYLSWYLQKPGQSPQLLIYGISNRFSGVPDRFSGSGSGTDFTLKISRVEAEDVGVYYCLQGTHQPYTFGQGTKLEIK	no binding (tested: 100 nM (highest concentration tested))
0.15	0.27	2.1	0.000118	56400	Antibody 2 (antibody, V domains shown, It has a human Fc: captured by anti-human Fc in SPR, detected by anti-human IgG in FACS) VH: EVQLVESGGGVVQPGRSLRLSCAASGYTFTSYWMHWVRQAPGKGLEWIGEIDPSESNTNYNQKFKGRATISVDNSKNTAYLQMSSLRAEDTAVYYCARGGYDGWDYAIDYWGQGTLVTVSS VL: DVVMTQTPLSLPVTPGQPASISCRSSQSLAKSYGNTYLSWYLQKPGQSPQLLIYGISNRFSGVPDRFSGSGSGTDFTLKISRVEAEDVGVYYCLQGTHQPYTFGQGTKLEIK	no binding (tested: 100 nM (highest concentration tested))
